These results are taken from paper PMC139967.

The assay has as its target T701-Myo1c (neck-tail fragment of bullfrog myosin-1c, amino acids 701-1028) (bullfrog) (UniProt Q92002). As to the kind of experiment: SDS-PAGE gel scanning.

Chain of T701-Myo1c (neck-tail fragment of bullfrog myosin-1c, amino acids 701-1028) (bullfrog) (Q92002 701-1028): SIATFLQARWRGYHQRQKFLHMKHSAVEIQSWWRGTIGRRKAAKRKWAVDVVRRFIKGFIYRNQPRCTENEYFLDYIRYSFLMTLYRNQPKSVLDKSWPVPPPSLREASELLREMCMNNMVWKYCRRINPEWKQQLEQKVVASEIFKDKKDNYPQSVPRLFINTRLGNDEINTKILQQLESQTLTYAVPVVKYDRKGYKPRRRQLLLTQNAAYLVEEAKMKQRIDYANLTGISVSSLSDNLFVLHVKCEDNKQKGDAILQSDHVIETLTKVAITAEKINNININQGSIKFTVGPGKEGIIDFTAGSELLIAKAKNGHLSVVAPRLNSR

“Xenopus calmodulin (from UniProt P0DP33 1-149) (natural protein)” returned a stoichiometry N (calmodulins per T701-Myo1c) of 2.6.
